According to EP2033655B1:
Ends that are not written are not given here.

Target: Cell-surface expressed nucleolin (on THP-1 monocytic cells; on HeLa P4 cells) (human), P19338
Experiment: cell-based or functional assay

Chain of Cell-surface expressed nucleolin (on THP-1 monocytic cells; on HeLa P4 cells) (human), P19338 (P19338 2-710 limits assumed): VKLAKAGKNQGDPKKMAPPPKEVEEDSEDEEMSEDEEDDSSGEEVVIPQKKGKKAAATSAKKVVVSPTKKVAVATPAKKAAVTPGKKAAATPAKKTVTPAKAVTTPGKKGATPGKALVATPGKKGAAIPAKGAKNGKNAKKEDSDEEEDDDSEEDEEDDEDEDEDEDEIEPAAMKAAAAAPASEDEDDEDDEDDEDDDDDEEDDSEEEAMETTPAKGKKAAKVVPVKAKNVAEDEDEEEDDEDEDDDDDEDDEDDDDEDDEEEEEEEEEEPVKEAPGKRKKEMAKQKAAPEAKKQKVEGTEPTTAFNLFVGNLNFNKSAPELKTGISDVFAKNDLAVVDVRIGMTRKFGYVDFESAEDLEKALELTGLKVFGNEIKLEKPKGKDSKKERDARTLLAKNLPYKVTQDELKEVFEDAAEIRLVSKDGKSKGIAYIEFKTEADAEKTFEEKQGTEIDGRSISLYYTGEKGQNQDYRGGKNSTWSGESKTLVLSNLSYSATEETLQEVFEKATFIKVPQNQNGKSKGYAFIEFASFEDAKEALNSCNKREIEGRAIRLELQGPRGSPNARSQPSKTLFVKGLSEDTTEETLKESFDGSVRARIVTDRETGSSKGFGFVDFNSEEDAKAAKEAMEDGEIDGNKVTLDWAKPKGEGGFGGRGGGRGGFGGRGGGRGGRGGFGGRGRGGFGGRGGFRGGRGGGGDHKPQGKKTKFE

B1: HB-19 pseudopeptide, 5[Lys (CH2N)Pro-Arg]-template-assembled synthetic peptide (peptide)
chain: KKKGPKEK
peptide: Lys-Pro-Arg
modifications: also: Lys (CH2N)Pro reduced bond, five Lys-Pro-Arg units assembled on template
Q: For B1, which level of infection of THP-1 cells, HB-19 together with anti-CR3 Mab is on record?
A: Its level of infection of THP-1 cells, HB-19 together with anti-CR3 Mab is 95%.
